We go through one molecule from US11110171B2, “PD-1 related cancer therapy” (New York University, priority 2017, dated 2021).

The assay addresses T1, SHP2PTP (the catalytic domain of SHP2) (Homo sapiens, UniProt Q06124).
T1 construct: purchased Abcam 42578 (SHP2 catalytic domain); 101112 (SAP)
T1 sequence (Q06124 247-517 limits assumed): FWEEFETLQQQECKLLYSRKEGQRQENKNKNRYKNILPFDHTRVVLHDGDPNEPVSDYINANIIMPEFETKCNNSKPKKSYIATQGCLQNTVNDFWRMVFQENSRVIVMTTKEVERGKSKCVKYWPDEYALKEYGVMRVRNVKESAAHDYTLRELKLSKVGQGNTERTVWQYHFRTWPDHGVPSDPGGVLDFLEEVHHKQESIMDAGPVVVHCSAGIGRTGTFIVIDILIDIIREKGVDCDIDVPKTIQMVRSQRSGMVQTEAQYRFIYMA
The experiment in a line: Co-affinity enrichment of His-tagged SAP and GST-tagged SHP2PTP. The settings on record: recombinant proteins in the absence of T cell lysate. Type of assay: binding. The method, then: FIG. 3. SAP is indirectly associated with PD-1. (ai) Pervanadate treated Jurkat T cells were transiently transfected with GFP-tagged PD-1 or GFP alone; Whole cell lysates (WCL) were immunoprecipitated with an anti-GFP antibody (IP: GFP), and samples were analyzed by immunoblotting. (aii) Densitometry values of data shown in ai. (b) Jurkat T cells were transfected with plasmids directing expression of the indicated fluorescent proteins and after 24 hours cells were stimulated with anti-CD3 antibodies and recombinant PDL2, followed by live-imaging. Bar, 10 μm. […] (di) Jurkat T cells were transfected with different versions of GFP-tagged PD-1, as indicated, followed by treatment with pervanadate; Whole-cell lysates (Input) were immunoprecipitated with an anti-GFP antibody (IP: GFP), and samples were analyzed by immunoblotting. […] (ei) 293T cells were transfected with plasmid directing expression of GFP-SAP or a control GFP plasmid, followed by treatment with pervanadate; Lysates were pulled-down with the GST-tagged PD-1 and samples were analyzed by immunoblotting. […] (gi) SHP2 KD and scrambled control Jurkat T cells were transfected with GFP-tagged PD-1, followed by treatment with pervanadate; Lysates were immunoprecipitated with an anti-GFP antibody (IP: GFP), and samples were analyzed by immunoblotting. […] Samples were analyzed by immunoblot. […]

B1: SAP: Recombinant human SAP (His tagged), signaling lymphocytic activation molecule-associated protein, purchased from Abcam (protein, UniProt O60880 1-128, looked up)
SH2 domain-containing protein …: MDAVAVYHGKISRETGEKLLLATGLDGSYLLRDSESVPGVYCLCVLYHGYIYTYRVSQTETGSWSAETAPGVHKRYFRKIKNLISAFQKPDQGIVIPLQYPVEKKSSARSTQGTTGIREDPDVCLKAP
modifications: His tag
On to B1, for which the “direct interaction of SAP with SHP2 catalytic domain” value is reported as “lack of direct interaction”.
